Molecular target: SkpA (Fjoh_1689) (Flavobacterium johnsoniae (endogenous))
Assay: cryo-EM structure; Extended Translocon, peak I of Twin-strep–SprA complexes from a ΔgldL background (also seen at 4.3 Å from ΔgldM peak I); assembled in vivo, in LMNG

stoichiometry N: 3
Substance: SkpA (Fjoh_1689) (natural protein)
